# Source: the supplement of paper PMC9170038
# System: MS2 coat protein
# Test: apparent KD of MS2 coat protein; designed switch direction (-1 OFF switch, 1 ON switch): -1; higher = weaker reporter binding
# Procedure, shortened: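 The apparent KD reported per design is the median over clusters of curve fits to normalised cluster fluorescence. The RNA switches were transcribed on Illumina chips by stalled E. coli RNA polymerase. SNAP-549-labelled MS2 coat protein was titrated from 0.7 or 1.5 nM, doubling up to 3 µM, in Tris-HCl pH 7.5 buffer containing KCl, MgCl2, BSA, DTT, tRNA and Tween-20, with no input, 200 uM small-molecule ligand, or an oligonucleotide input.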
# [1] = input ligand: microRNA oligo, concentration not stated
# [2] = Eterna round: R95, input ligand: microRNA oligo, concentration not stated
# [3] = Eterna round: R95, input ligand: FMN 200 uM
# [4] = Eterna round: R95, input ligand: none
Sequence,apparent KD of MS2 coat protein (input ligand: FMN 200 uM) [nM],apparent KD of MS2 coat protein [1] [nM],apparent KD of MS2 coat protein (input ligand: none) [nM],apparent KD of MS2 coat protein [2] [nM],apparent KD of MS2 coat protein [3] [nM],apparent KD of MS2 coat protein [4] [nM]
"CGUGCGUAUGUGAGGAUAUGCUGGUCCUUGGAUCGGCAGAAGGCACAUGAGGAUCACCCAUGUGGUGUCGUUCC [salish99_Bmod_ex4_094] (Eterna round: R96, puzzle: Brourd's mod of Exclusion 4)",328,30.8,39.1,–,–,–
CGUGCGUAUGUGAGGAUAUGCUGGUCCUUGGAUCGGCAGAAGGCACAUGAGGAUCACCCAUGUGGUGUCGUUCC [salish99_Bmod_ex4_094] (puzzle: Brourd's mod of Exclusion 4),–,–,–,39,–,–
"CGUGGCCGGUGAGGAUAUUGAUGACAUGAGGAUCACCCAUGUGUAUCCUCUCGAAAUACCGUGAUCAAGAAGGCAUGGUGCCAC [Ritibe] (Eterna round: R96, puzzle: Exclusion NG 2)",68.5,12,14,–,–,–
"CUAAAUCAUGUAGGAUAUGCAUAGCAAAGCUAUGCAGAAGGACAUGAGGAUCACCCAUGUCAUUCCGUCUGGAGACAGACGGGA [Mat - Exclusion NG 1 - Mod of JL - D56] (Eterna round: R96, puzzle: Exclusion NG 1)",142,25,32.5,–,–,–
"CUAAAUCAUGUAGGAUAUGCGUGGCAAAGCUAUGCAGAAGGACAUGAGGAUCACCCAUGUGCUUCCGUCUGAGUACAGACGGUA [Mat - Exclusion NG 1 - Mod of JL - D22] (Eterna round: R96, puzzle: Exclusion NG 1)",622,72.9,98.2,–,–,–
"CUAAUGUAUCAGGAUAUGAUUAUAUGUGUUGGAUCAGAAGGGAUAACAUGAGGAUCACCCAUGUUGUGGAGUGA [JR_Ex6_Sub036] (Eterna round: R97, puzzle: Exclusion 6)",202,–,234,–,–,–
"CUAAUUCGAGGAUAUGCAAUGGAGUCUUUAAUAUAGUUCUCACAUGAGGAUCACCCAUGUAGAAGGCGAGCGGG [Eternabot (L1) Solution 50] (Eterna round: R97, puzzle: Exclusion 2)",115,–,53.1,–,–,–
"CUACUACAUGAGGAUCACCCAUGUGAGGAUAUCAGUGGUGCUGCUAGGUAGUCCGGACUGAGAAGGCGCAUAGU [Mod-Malcom] (Eterna round: R97, puzzle: Exclusion 1)",43.1,–,52.8,–,–,–
"CUAGACGGAGGAUAUACGAGAUCGAAAGAUCGGCGAUCCCUACAUGAGGAUCACCCAUGUAGAAGGCUGUUUAG [Mod 19 - Jieux - Exclusion 2] (Eterna round: R97, puzzle: Exclusion 2)",69.9,–,16.2,–,–,–
"CUAGCGGAUGUAGGAUAUCGGACUGUUUCAGUCUGAGAAGGACAUGAGGAUCACCCAUGUAUUGCUGCGUGAGUAGCACGCUAG [JL ENG1 3.97] (Eterna round: R96, puzzle: Exclusion NG 1)",–,17.4,–,–,–,–
"CUAGCGUAUGUAGGAUAUCGGACUGUUUCAGUCUGAGAAGGACAUGAGGAUCACCCAUGUAUAGCUACGUGAGUAGCUCGCUAG [JL ENG1 3.94] (Eterna round: R96, puzzle: Exclusion NG 1)",–,17.2,–,–,–,–
"CUAGCUAUUGUAGGAUAUCGAUGUGUUUCACAUCGAGAAGGACAUGAGGAUCACCCAUGUGAAGGAUCGUGAGAUCCAAGCUAG [JL ENG1 3.77] (Eterna round: R96, puzzle: Exclusion NG 1)",128,25.1,24.1,–,–,–
"CUAGUAUAUCAGGAUAUGAUUUUAUAUAGUUGGUCAGAAGGGAUGACAUGAGGAUCACCCAUGUUAAGGAGUGA [JR_Ex6_Sub043] (Eterna round: R97, puzzle: Exclusion 6)",143,–,118,–,–,–
"CUAGUAUAUCAGGAUAUGAUUUUAUAUAUUGGAUCAGAAGGGAUAACAUGAGGAUCACCCAUGUUAAGGAGUGA [JR_Ex6_Sub040] (Eterna round: R97, puzzle: Exclusion 6)",155,–,45,–,–,–
"CUCAAAAGUCGGUUUACACACAUGAGGAUCACCCAUGUAAGCAAACAUAUAGGCUCUACGAUUUGCUCGCUCUUAUA [Eternabot (L1) Solution 34] (Eterna round: R97, puzzle: Sensor, turn-off variant 1)",13.5,–,13.2,–,–,–
"CUCAGGGUGCAGGAUAUCAUGGGAUAUCCCACCUGAGAAGGGCGAACAUGAGGAUCACCCAUGUGAGUGGGAGA [Eternabot (L2) Solution 85] (Eterna round: R97, puzzle: Exclusion 6)",488,–,441,–,–,–
"CUCAUGUCAGGAUAUCAGGCAGGAAGCUGCCAAAAGUGGGAUGAGAAGGGACAUGAGGAUCACCCAUGUAAAUA [Mazasoti] (Eterna round: R97, puzzle: Exclusion 4)",355,–,218,–,–,–

Sequence,apparent KD of MS2 coat protein (input ligand: FMN 200 uM) [nM],apparent KD of MS2 coat protein [1] [nM],apparent KD of MS2 coat protein (input ligand: none) [nM],apparent KD of MS2 coat protein [2] [nM],apparent KD of MS2 coat protein [3] [nM],apparent KD of MS2 coat protein [4] [nM]
"CUCAUGUCAGGAUAUCUACAUUAAAUUGGUAACCAAGCAUGAGAGAAGGGACAUGAGGAUCACCCAUGUAAAAC [Cegeange] (Eterna round: R97, puzzle: Exclusion 4)",44,–,27.5,–,–,–
"CUCAUGUGAGGAUAUCACAUAGCGUCACGGCUGUAACAUUUUGAGAAGGCACAUGAGGAUCACCCAUGUGACAC [Eternabot (L2) Solution 79] (Eterna round: R97, puzzle: Exclusion 4)",104,–,46.6,–,–,–
CUCAUGUGAGGAUAUCAGUAGUGAUACGAUAGUAUUACUGCUGAGAAGGUACAUGAGGAUCACCCAUGUUCCUC [Exclusion 4 - Mod Omei Ex4 344 mod 4 v.3] (puzzle: Exclusion 4),–,–,–,26.9,–,–
CUCAUGUGAGGAUAUGUGAUCAACCUUCUGUAUAGAUGAUGACAGAAGGCACAUGAGGAUCACCCAUGUAGAUC [Ex4 - 3 - 18] (puzzle: Exclusion 4),–,–,–,46.7,–,–
"CUCCUACUUGUAGGAUAUCAGAGAUAACAUGAGGAUCACCCAUGUUGGGUCAUCAACUCAGUCGGUGAGAAGGACAGAAGUUGG [Eternabot solution 42] (Eterna round: R96, puzzle: Exclusion NG 2)",96.1,68.6,63.2,–,–,–
"CUCCUCAUGGCGCCUAAACACAUGAGGAUCACCCAUGUAUAGGCUUUUUGCCGUCUUAUAAUAAAACCGAGGAUGCG [Rianza] (puzzle: Sensor v3, turn-off variant 1)",–,–,–,276,28.7,21.9
CUCCUGUAAGGAUAUCUGACAAGUGACGAAAGUCACAGUUCAGAGAAGGUACAUGAGGAUCACCCAUGUAGAAC [Exclusion 4 - Mod Brourd Ex 4-3: 41 v.2] (puzzle: Exclusion 4),–,–,–,31,–,–
"CUCGAGUCAGGAUAUGUUCCGCAUGGCAACAUGCUAUAAGAAUAGAAGGGACAUGAGGAUCACCCAUGUUAACA [Eternabot (Original) Solution 12] (Eterna round: R97, puzzle: Exclusion 4)",162,–,44.7,–,–,–
"CUCGUGCAGCAAAGCUGUACGAGUACAUGAGGAUCACCCAUGUAGGAUAUGGUACGCAAAGCGUGCUAGAAGGACGUGUGUAAG [Mat - Exclusion NG 3 - Mod of JL - D92] (Eterna round: R96, puzzle: Exclusion NG 3)",118,33.4,47.7,–,–,–
"CUCGUGCAGCAAAGCUGUACGAGUACAUGAGGAUCACCCAUGUAGGAUAUGGUACGCAAAGCGUGCUAGAAGGAUAUGUGUAGG [Mat - Exclusion NG 3 - Mod of JL - D87] (Eterna round: R96, puzzle: Exclusion NG 3)",61.5,32.7,50.5,–,–,–
"CUCGUGUGAGGAUAUCCUCUUAUAUAACAAAGGUUGAAGCAGGAGAAGGCACAUGAGGAUCACCCAUGUGCAUA [EX4 C.6] (Eterna round: R97, puzzle: Exclusion 4)",46.4,–,16.9,–,–,–
"CUCUGCACGCUGCGGUCCUACAUGAGGAUCACCCAUGUGGUCUGGUGGCGUGGGUCGCCGGACUUGGCUCGUCUUGA [salish99_S_TOV1_R5_046] (Eterna round: R97, puzzle: Sensor, turn-off variant 1)",19,–,18.7,–,–,–
CUCUUGUUAGGAUAUCAAACCAGUGACGGAACCACUGGAAGUGAGAAGGGACAUGAGGAUCACCCAUGUAAGAA [Edraate] (puzzle: Exclusion 4),–,–,–,52.3,–,–
"CUGAAAUUCGUAAGGAUAUGUUCCAUCAAAUAGGAGCAGAAGGUACAUGAGGAUCACCCAUGUCAGUAGAUCCA [Eternabot (L1) Solution 47] (Eterna round: R97, puzzle: Brourd's mod of Exclusion 4)",130,–,40.2,–,–,–
"CUGAACCCGGUAGGAUAUAUUGUGGGCAAGCAUGGAACGACAUGAGGAUCACCCAUGUAAUUUAGGUAGAAGGGCCAAGAGAUU [Excl-NG2-LRO10] (Eterna round: R96, puzzle: Exclusion NG 2)",74.2,41.8,73.7,–,–,–
"CUGAAUCGAGGAUAUACAUGAGGAUCACCCAUGUAUACUGUCUUGGUGAGAGUCCCGUGUAGAAGGCGACAGGC [EX3 B.6] (Eterna round: R97, puzzle: Exclusion 3)",60.1,–,35.9,–,–,–
"CUGAGCAGACGAAGAUCCAACAUGAGGAUCACCCAUGUCUCAAAAGCUUUUUGCUCGUCUUAUCCUUCUCUGUUCUC [Reisedzaqu] (puzzle: Sensor v3, turn-off variant 1)",–,–,–,176,16,13
